# Experimental data reported in patent publication US20050154189A1 (MAXYGEN, published 2005).
# Positions count from the first letter of the chain named.
# B1: Round 2 CD28BP-15 (ligand)
# chain: ITPKSVTKRVKETVMLSCDYNTSTEELTSLRIYWQKDSKMVLAILPGKVQVWPEYKNRTITDMNDNPRIVILALRPSDSGTYTCVIQKPVLKGAYKLEHLASVRLMIRADFPVPTINDLGNPSPNIRRLICSTSGGFPRPHLYWLENGEELNATNTTVSQDPGTELYMISSELDFNVTNNHSIVCLIKYGELSVSQIFPWSKPKQEPPIDQLPFWVIIPVSGALVLTAVVLYCLACRHVARWKRTRRNEETVGTERLSPIYLGSAQSSG
# notes: Full-length clone on transiently or stably transfected 293 cells; The end 303 is the end of the entry as counted; also called R2 CD28BP-15; clone 15
# B2: Baboon B7-1 (ligand)
# chain: VIHVTKEVKEVATLSCGHNVSVEELAQTRIYWQKEKKMVLTMMSGDMNIWPEYKNRTIFDITNNLSIVILALRPSDEGTYECVVLKYEKDAFKREHLAEVMLSVKADFPTPSITDFEIPPSNIRRIICSTSGGFPEPHLFWLENGEELNAINTTVSQDPGTELYTVSSKLDFNMTTNHSFVCLIKYGHLRVNQTFNWNTPKQEHFPDNLLPSWAITLISVNGIFVICCLTYCFAPRCRERRRNETLRRESVRPV
# notes: Wild-type parental gene expressed on transfected 293 cells
# B3: Orangutan B7-1 (ligand)
# chain: VIHVTKEVKEVATLSCGHNVSVEELAQTRIYWQKEKKMVLTMMSGDMNIWPEYKNRTIFDITNNLSIVILALRPSDEGTYECVVLKYEKDAFKREHLAEVTLSVKADFPTPSISDFEIPTSNIRRMICSTSGGFPEPHLSWLENGEELNAISTTVSQDPETELYAVSSKLDFNMTTNHSFMCLIKYGHLRVNQTFNWNTPKQEHFPDNLLPSWAITLISVNGIFVICCLTYCFAPRCRERRSNERLRRESVRPV
# notes: as for B2
# B4: Rhesus B7-1 (ligand)
# chain: B2 chain with H138R, F140S, N152S, G160E, V181M, Y231H
# notes: Wild-type parental gene expressed on transfected 293 cells; also called rhesus monkey B7-1
# B5: Round 1 CD28BP-84 (ligand)
# chain: GISQVTKSVKEMAALSCDYNISIDELARMRIYWQKDQQMVLSIISGQVEVWPEYKNRTFPDIINNLSLMILALRLSDKGTYTCVVQKNENGSFRREHLTSVTLSIRADSPVPSITDIGHPAPNVKRIRCSASGGFPEPRLAWMEDGEELNAVNTTVDQDLDTELYSVSSELDFNVTNNHSIVCLIKYGELSVSQIFPWSKPKQEPPIDQLPFWVIIPVSGALVLTAVVLYCLACRHVARWKRTRRNEETVGTERLSPIYLGSAQSSG
# notes: also called R1clone 84; Clone 84
# B6: Round 1 CD28BP-118 (ligand)
# chain: B5 chain with S109F, G134D
# notes: also called R1clone 118; Clone 118
# B7: Round 2 CD28B4-5* (ligand)
# chain: SGITPKSVTKRVKETVMLSCDYNTSTEELTSLRIYWQKDSKMVLAILPGKVQVWPEYKNRTITDMNDNPRIVILALRLSDKGTYTCVVQKPDLKGAYKLEHLASVRLMIRADFPVPSITDIGHPAPNVKRIRCSASGGFPEPRLAWMEDGEELNAVNTTVDQDLDTELYSVSSELDFNVTNNHSIVCLIKYGELSVSQIFPWSKPKQEPPIDQLPFWVIIPVSGALVLTAVVLYCLACRHVARWKRTRRNEETVGTERLSPIYLGSAQSSG
# B8: Round 2 CD28F11-8 (ligand)
# chain: ITPKSVTKRVKETVMLSCDYNTSTEELTSLRIYWQKDSKMVLAILPGKVQVWPEYKNRTITDMNDNPRIVILALRLSDSGTYTCVIQKPVLKGAYKLEHLTSVRLMIRADFPVPTINDLGNPSPNIRRLICSTSGGFPRPHLYWLENGEELNATNTTLSQDPETKLYMISSELDFNMTSNLCLVKYGDLTVSQTFYWQESKPTPSANQHLTWTIIIPVSAFGISVIIAVILTCLTCRNAAIRRQRRENEVEMQSCSQSP
# Experiments:
# [1] = target: human CD28 receptor (human, UniProt P10747 19-220); test: cell-based or functional assay
# [2] = target: T1, Soluble CD28-Ig (human, UniProt P10747 19-152, biotin-conjugated (NHS-biotin) in the labelled-ligand FACS assays); test: two-colour FACS profile on transfected cells; score of preference for CD28-Ig over CTLA-4-Ig vs WT hB7-1
# T1 construct: extracellular domain; Bought from R&D Systems; also called sCD28-Ig; CD28-Ig Fc; not shown: Fc portion of human IgG1
# [3] = target: T1, Soluble CD28-Ig; test: receptor binding assay, data not shown
# [4] = target: T2, Soluble CTLA-4-Ig (human, UniProt P16410 36-161, FITC-conjugated in the two-colour FACS assays; unlabelled and detected with FITC goat anti-human IgG in the concentration-dependent assay); test: receptor binding assay, data not shown
# T2 construct: extracellular domain; Bought from R&D Systems; also called sCTLA-4-Ig; CTLA-4-Ig Fc; not shown: Fc portion of human IgG1
# [5] = target: T1, Soluble CD28-Ig; test: two-colour FACS on transfected 293 cells
# Method: (§1) Biotin binds the fluorescence marker Streptavidin-PE. (R-PE has an excitation maximum of 565 nanometers (nm) and an emission maximum of 578 nm. B-PE has excitation and emission maxima of 545 nm and 578 nm, respectively. FITC has excitation and emission maxima of 494 and 519, respectively.) The cells were again washed twice and resuspended in 200 μl medium with 5 μg/ml propidium iodide (PI). The cells were then analyzed using a FACSCalibur flow cytometer and CellQuest software (BDIS, San Jose, Calif.). Cell sorting was performed by flow-cytometry based cell sorting screening methods using FACS (Fluorescence-Activated Cell Sorting) Vantage SE cell sorter (BDIS) (Becton Dickinson; San Jose, Calif.). The staining concentration was determined for each labeled protein to provide a maximal Mean Fluorescence Intensity (MFI) and minimal background signal (e.g., optimum staining concentration was the concentration per 10⁶ cells).
# [6] = target: T2, Soluble CTLA-4-Ig; test: two-colour FACS on transfected 293 cells
# Method: as §1
# [7] = target: T2, Soluble CTLA-4-Ig; test: FACS of transfected cells, Round 1 clones
# T2 sequence (P16410 36-161): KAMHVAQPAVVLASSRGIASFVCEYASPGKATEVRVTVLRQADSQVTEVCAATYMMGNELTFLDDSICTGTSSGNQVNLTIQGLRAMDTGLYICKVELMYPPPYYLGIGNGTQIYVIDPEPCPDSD
binder,measurement,setting,value
B1,T cell proliferation (3H-thymidine incorporation) of purified human T cells with anti-CD3 mAbs,[1],~10 fold
same,Binding Score,[2],2
B2,binding result,[3],binds
same,binding result,[4],binds
B3,binding result,[3],binds
same,binding result,[4],binds
B4,binding result,[5],binds
same,binding result,[6],binds
B5,binding result,[7],binds
same,Binding Score,[2],1
B6,binding result,[7],binds
same,Binding Score,[2],1
B7,Binding Score,[2],0
B8,Binding Score,[2],0
